Reference: patent US20020022718A1, “Genes identified as required for proliferation of E. coli” (priority 1999, published 2002)

B1: EcXA121: antisense clone insert to E. coli yjfQ (nucleic acid, listed as Escherichia coli)
antisense: TGATCGATCAGGTAATTTGCCAGCGGTAGATAATTAGTGATGATTTGCACTGGCTTGCCACACATTTCCCGCCCAAGCAGAAACGCGGTGGAGCCGCAGTTGATGACTACGCTTTCGCCCGGATTAACCAGCTGCGAGGCCGCTTTAGCGATACGTACTTTTTCATCGTGATTCTGCGCCTGATGCAGATTCATCGGCGTCCAGCGCGGGCGCTGTTGGGTAATAGCTTCTGCGCCATTGCGCACTTTTTTCAGTTTGCCGCTTTCGTCAAGTTTATTGA
B2: EcXA126: antisense clone insert to E. coli yicC (nucleic acid, listed as Escherichia coli)
antisense: CGATGTTCTGAATCTGCTCGCGCATCTGCTCAATCAACACTTTCAGCTCGATGGCGGAGTTTGTCACTTCGGCATTGATAGACTTCGACGCAAGAGTGTTCGACTCGCGGTTGA
B3: EcXA129: antisense clone insert to E. coli yadC, yadK (nucleic acid, listed as Escherichia coli)
antisense: GTATTACAACAAGAATACAGTGCTAAAAAAAGAATGTACCTGAAGATAGTCTTCATTTTTACTCCAATGTTTCTTTATTGTTATGGTTTGCGCTGTTTTTGTTTGTTATTCGTAGTAAATATCCACTAACACATGGCTCATAAGTTGACCAGATGTAACACTCAATGCAGGATCGATTTTTTGCATTCGGGTGCTAAATTTCCAGGATGAACCATTCATGTCATCCGACATTACTGG
B4: EcXA125: antisense clone insert to E. coli yiiL (nucleic acid, listed as Escherichia coli)
antisense: TGTCGGTAAACAATGACAATTTGAGACAGAGTGAAAGGTCAGATTTGCGGAGTAATGCACATAATGGTTATTTAAATAAACCACATGAATCATTAATGGGTTATTCATTATTTTTGTGATTTACTCACAATGTATCAGGGAAATATAACTTACCGGGAGATGTAATATGTTTAATTTTTCAAATCGAAATTTAAAATATTGTGCCGGAGGCATCTCTGGCACATTGGGCAATTACGGCA
B5: EcXA123: antisense clone insert to E. coli yheL (nucleic acid, listed as Escherichia coli)
antisense: CTGGTTTTAGCTTTTGCTTCGTAAACACGTAATAAAACGTCCTCACACAATATGAGGACGCCGAATTTTAGGGCGATGCCGAAAAGGTGTCAAGAAATATACAACGATCCCGCCATCACCAGGCCATCTGGCTGGGG
B6: EcXA130: antisense clone insert to E. coli atpE, atpB (nucleic acid, listed as Escherichia coli)
antisense: CATCATCACAGCGGCAGCCATGTACAGCAGATCCATATTCAGGTTTTCCATGACAGTCTCCAGTTTGTTTCAGTTAAAACGTAGTAGTGTTGGTAAATTAATGTTCTTCAGACGCCATCGACAGATAGACGATCGTCAGAACCATGAAGATGAAGGCTTGCAGCGTAATGATCAGGATGTGGAAAATGGCCCACGGCACATTCAGGATCCACTGTGACCACCACGGCAACAGACCAG
B7: EcXA128: antisense clone insert to E. coli nagE (nucleic acid, listed as Escherichia coli)
antisense: CGCTGGAAAAAACCTAAAATATTCATCTTATTCCCCCTACGAGAACCCTATTTGGCTCGTTTCAAGCCGTATTTTTATTTTGCTGCAAATTGTACTGCCGATGTTCTGTAATCAGATTGTTAGATCATCTGCTACAGAGTGTGTGAAAATTTAATTCGTATCGCAAATTAAACGCGTGTCTTTTGTGAGTTTTGTCACCAAATATCGTTATTATCACTCCCTTTTACTGGCTAAACCAGAAAACTTATTT

test system: Klebsiella pneumoniae; assay: Growth inhibition by induced E. coli antisense RNA in Klebsiella pneumoniae; assay type: cell-based; design: key: +: a positive in Table V below means that at least 10 fold more cells were required to observe a colony on the induced plate than on the non-induced plate; −: If there was no effect of antisense RNA expression in a microorganism, the clone is minus in Table V below; conditions: antisense RNA expression induced with IPTG, serial dilution plating
Description: To study the effects of transcriptional induction in liquid medium, growth curves were carried out by back diluting cultures 1:200 into fresh media with or without 1 mM IPTG and measuring the OD450 every 30 minutes (min). To study the effects of transcriptional induction on solid medium, 10^2, 10^3, 10^4, 10^5, 10^6, 10^7 and 10^8 fold dilutions of overnight cultures were prepared. Aliquots of from 0.5 to 3 μl of these dilutions were spotted on selective agar plates with or without 1 mM IPTG. After overnight incubation, the plates were compared to assess the sensitivity of the clones to IPTG.
Molecule No. EcXA190, encoding a portion of the b3052 gene of Escherichia coli, was either transformed directly into Enterobacter cloacae, Salmonella typhimurium and/or Klebsiella pneumoniae or subcloned into an expression vector functional in these species and the subclones transformed into these organisms. Suitable expression vectors are well known in the art. These expression vectors were introduced into Enterobacter cloacae, Salmonella typhimurium and/or Klebsiella pneumoniae cells that were then assayed for growth inhibition according to the method of Example 1. After growth in liquid culture, cells were plated at various serial dilutions and a score determined by calculating the log difference in growth for INDUCED vs. UNINDUCED antisense RNA expression as determined by the maximum 10 fold dilution at which a colony was observed. If there was no effect of antisense RNA expression in one organism, the clone is given a score of zero “0” in that organism. In contrast, a score of “8” means that 10^8 times more cells were required to observe a colony formed on the induced state than in the non-induced state under the conditions used and in that organism.
In addition, the above methods were validated using other antisense nucleic acids which inhibit the growth of E. coli which were identified using methods similar to those described above. Expression vectors which inhibited growth of E. coli upon induction of antisense RNA expression with IPTG were transformed directly into Enterobacter cloacae, Klebsiella pneumonia or Salmonella typhimurium. The transformed cells were then assayed for growth inhibition according to the method of Example 1. After growth in liquid culture, cells were plated at various serial dilutions and a score determined by calculating the log difference in growth for INDUCED vs. UNINDUCED antisense RNA expression as determined by the maximum 10 fold dilution at which a colony was observed. If there was no effect of antisense RNA expression in a microorganism, the clone is minus in Table V below. In contrast, a positive in Table V below means that at least 10 fold more cells were required to observe a colony on the induced plate than on the non-induced plate under the conditions used and in that microorganism.

Molecule | Sensitivity of K. pneumoniae to antisense nucleic acid (growth inhibition, induced vs. uninduced)
B1 | −
B2 | −
B3 | −
B4 | −
B5 | −
B6 | −
B7 | −
